For assay [1], the target named is C. difficile toxin B from strain CCL678 (ribotype 027, BI/NAP1/027) (Clostridium difficile strain CCL678). Nature of the assay: cell-based or functional assay.
Assay [2] has as its target C. difficile toxin A from strain Pitt 07 (ribotype 078) (Clostridium difficile strain Pitt 07). Nature of the assay: cell-based or functional assay.

In turn, “comparator human anti-toxin B monoclonal antibody CDB-1” came in with an EC50, neutralization of supernatant cytotoxicity on CHO-K1 cells in assay [1] greater than 100 nM.
Regarding “comparator human anti-toxin A monoclonal antibody CDA-1”, the EC50, neutralization of supernatant cytotoxicity on T-84 cells in assay [2] is greater than 100 nM.

The record behind these values is patent publication US20130202618A1.
